Reference: patent US12024543B2, “Micropeptides and use of same for modulating gene expression” (UNIVERSITE PAUL SABATIER TOULOUSE III, priority 2013, dated 2024)

Legend:
DmmiR8 = assay: Transfected Drosophila melanogaster S2 cells, relative expression of Pre-miR8; format: cell-based
Experimental: S2 cells are cultured in a T75 flask in 12 mL of Schneider's medium (GIBCO), containing 1% of penicillin 100 U/mL and […] (Sigma) and 10% of decomplemented foetal calf serum (30 min at 56° C.). The transient transfections are carried out using the FuGENE® HD transfection kit (Roche), according to the recommendations. Conventionally, 1.5 million S2 cells, previously seeded in 6-well plates (3 ml of medium per well), are transfected with 250 ng of total plasmid DNA. The DNA is brought into contact with the Fugene (3 μl) in 100 μl of OPTIMEM (GIBCO). After 20 minutes, the transfection reagent formed is brought into contact with the cells in the culture medium. The RNA of the cells is extracted 66 h after transfection.

Medicago truncatula = assay: Number of lateral roots in M. truncatula; format: in vivo; details: overexpression of MtmiPEP171b1 (MtmiORF171b), vs control plant
Experimental: The surface of seeds of M. truncatula was sterilized and they were left to germinate on agar plates for 5 days at 4° C. in the dark. […] The lateral roots were counted every day. […] The mean values of the relative expression of the genes or of the production of lateral roots were analysed using the Student test or the Kruskal-Wallis test. The error bars represent the SEM (Standard Error of the Mean). The asterisks indicate a significant difference (p<0.05).

MtmiR171b [1] = assay: Overexpression of MtmiPEP171b1 (MtmiORF171b) in M. truncatula roots, relative expression by qRT-PCR; format: in vivo, Medicago truncatula; details: vs control plant
Experimental: (§1) The total RNA was extracted from roots of M. truncatula or from tobacco leaves using the extraction kit RNeasy Plant Mini Kit (Qiagen). The reverse transcription was performed using the reverse transcriptase SuperScript II (Invitrogen) starting from 500 ng of total RNA. Three repetitions (n=3) were carried out, each with two technical repetitions. Each experiment was repeated from two to three times. The amplifications by qPCR were carried out using a LightCycler 480 System thermocycler (Roche Diagnostics) by the method described in Lauressergues et al. (Plant J., 72(3): 512-22, 2012).
(§2) The DNA fragments of interest were amplified with Pfu polymerase (Promega). The DNA fragments were cloned using the XhoI and NotI enzymes into a pPEX-DsRED plasmid for an overexpression under the control of the constitutive strong promoter 35S, and using the KpnI-NcoI enzymes into a pPEX GUS plasmid for the reporter genes, by the method described in Combier et al. (Genes & Dev, 22: 1549-1559, 2008).
(§3) The composite plants having roots transformed with Agrobacterium rhizogenes were obtained by the method described in Boisson-Dernier et al. (Mol Plant-Microbe Interact, 18: 1269-1276, 2005). The transformed roots were verified and selected by observations of DsRED with a binocular fluorescence magnifier. The control roots correspond to roots transformed with A. rhizogenes not containing the pPEX-DsRED vector. Transformation of the tobacco leaves was carried out by the method described in Combier et al. (Genes & Dev, 22: 1549-1559, 2008).

MtmiR171b [2] = assay: Regulation of MtmiR171b by MtmiPEP171b1 in transformed tobacco leaves; format: in vivo, Nicotiana benthamiana; details: tobacco expressing MtmiR171b, co-expression of MtmiPEP171b1 (MtmiORF171b ATG vs ATT), FIG. 7
Experimental: In order to determine whether the mechanism of regulation of the microRNAs is conserved in other plant species, the regulation of MtmiR171b by MtmiPEP171b1 was tested in a different cellular model. For this, MtmiR171b and MtmiPEP171b1 were introduced into tobacco leaves.
The accumulation of MtmiR171b was measured in tobacco leaves transformed in order to express MtmiR171b of Medicago truncatula starting from wild-type pri-miRNA capable of producing MtmiPEP171b1, or starting from a mutated version of pri-miRNA incapable of producing MtmiPEP171b1 (in which the start codon ATG of MtmiORF171b has been replaced with ATT) (FIG. 6 and FIG. 20).
The accumulation of pre-MtmiR171b was measured in tobacco leaves transformed in order to express MtmiR171b of Medicago truncatula alone (control), or additionally expressing the wild-type MtmiORF171b of Medicago truncatula (35SmiPEP171b1 ATG), or a mutated version of MtmiORF171b in which the start codon ATG has been replaced with ATT (35SmiPEP171b1 ATT) (FIG. 7 and FIG. 21).
The leaves were watered by spraying with the peptides using peptide solutions at different concentrations (0.01, 0.1, 1 μM), firstly 12h before sampling and then a second time 30 min before sampling.
as §1, §2, §3

Row | Molecule | expression of DmmiR8 (relative expression of Pre-miR8) (DmmiR8; D. melanogaster cells overexpressing DmmiPEP8 vs miPEP8 with mutated start codons) | expression of DmmiR8 (relative expression of Pre-miR8) (DmmiR8; D. melanogaster cells overexpressing wild-type DmmiR8 vs DmmiR8 with mutated miPEP8 start codons) | number of lateral roots (Medicago truncatula) | accumulation of MtmiR171b (MtmiR171b [1]) | expression of the HAM1 gene (MtmiR171b [1]) | expression of the HAM2 gene (MtmiR171b [1]) | relative expression of pre-MtmiR171b (expression of MtmiR171b) (MtmiR171b [2])
1 | MEPGFVFVLFPTHLSTQHTQREKSILVMGLNLQSAKQSDKQNSKERKKNTQINSQRIPYRQGGQCSKVLSP (Drosophila melanogaster) MEPGFVFVLFPTHLSTQHTQREKSILVMGLNLQSAKQSDKQNSKERKKNTQINSQRIPYRQGGQCSKVLSP | increases | increases | – | – | – | – | –
2 | ATGCTTCTTCATAGGCTCTCCAAATTTTGCAAAATTGAAAGAGACATAGTATATATATCTTAG (nucleic acid, listed as Medicago truncatula, listed as DNA, chemistry not fully specified) DNA: ATGCTTCTTCATAGGCTCTCCAAATTTTGCAAAATTGAAAGAGACATAGTATATATATCTTAG | – | – | reduction | increase | reduction | reduction | increase
